Eight molecules from article PMC3247260, “Domain Analysis Reveals That a Deubiquitinating Enzyme USP13 Performs Non-Activating Catalysis for Lys63-Linked Polyubiquitin” (PLoS ONE, 2011) can be followed below.

Settings in all cases: both partners purified
Assay [1] concerns the target T1, ubiquitin (Ub) (UniProt P0CG48 1-76).
T1 construct: ubiquitin, free monomer; only a GST-fused Ub construct is named in the methods; also called free Ub; monoUb
The assay can be described thus: ITC; Ub (1 mM stock) injected into USP13-ZnF, USP5-ZnF or its mutants (50 µM), 25 injections of 8 µL; 50 mM Tris, 150 mM NaCl, pH 7.5, 1 mM DTT; 25°C. Background: Isothermal titration calorimetry measures the heat released or taken up as one component is titrated into another.

Assay [2] deals with T2, GST-fused Ub (UniProt P0CG48 1-76).
T2 construct: ubiquitin (Ub); cDNA inserted into pGEX-4T-3; also called GST-Ub; source: E. coli BL21, purified (glutathione agarose)
The assay can be described thus: pull-down; GST-fused Ub, ISG15, SUMO1 or SUMO2 loaded on glutathione agarose, USP13 or USP13-UBA12 (~100 µM) added; 1-hr incubation, washed three times, eluted by GSH buffer; SDS-PAGE with Coomassie blue staining.

The target of assay [3] is T1, ubiquitin (Ub). Nature of the assay: NMR titration; 15N-labeled USP13-UBA12 or USP5-ZnF (~0.2 mM) titrated with Ub (or ISG15), 1H-15N HSQC spectra; 20 mM phosphate, 50 mM NaCl, pH 6.5.
Assay [4] has as its target T3, linear diUb (UniProt P0CG48 1-76; P0CG48 1-76).
T3 construct: ubiquitin, first unit of the linear (head-to-tail) dimer; ubiquitin, second unit of the linear (head-to-tail) dimer; also called linear linked diUb
The assay can be described thus: ITC; USP13-UBA12 (1.25 mM stock) injected into K63-, K48-, linear diUb (0.1 mM) or monoUb (0.2 mM), 25 injections of 1.5 µL; 50 mM Tris, 150 mM NaCl, pH 7.5; 25°C.

B1: USP5-ZnF R222W (domain or fragment, human, UniProt P45974 169-289, looked up)
chain: WDGEVRQVSKHAFSLKQLDNPARIPPCGWKCSKCDMRENLWLNLTDGSILCGRWYFDGSGGNNHAVEHYRETGYPLAVKLGTITPDGADVYSYDEDDMVLDPSLAEHLSHFGIDMLKMQKT
notes: USP5, human, ZnF domain, residues 169-289, point mutant in pET-M; source: E. coli BL21, purified (Ni-NTA agarose, size-exclusion chromatography)
The term Kd denotes the concentration at which binding is half-saturated. In assay [1], B1 had a Kd of 9.1 µM.

B2: USP5-ZnF Y223F (domain or fragment, human, UniProt P45974 169-289, looked up)
chain: WDGEVRQVSKHAFSLKQLDNPARIPPCGWKCSKCDMRENLWLNLTDGSILCGRRFFDGSGGNNHAVEHYRETGYPLAVKLGTITPDGADVYSYDEDDMVLDPSLAEHLSHFGIDMLKMQKT
notes: as for B1
Take B2: the Kd in assay [1] came out at 6.4 µM.

B3: USP5-ZnF R221K (domain or fragment, human, UniProt P45974 169-289, looked up)
chain: WDGEVRQVSKHAFSLKQLDNPARIPPCGWKCSKCDMRENLWLNLTDGSILCGKRYFDGSGGNNHAVEHYRETGYPLAVKLGTITPDGADVYSYDEDDMVLDPSLAEHLSHFGIDMLKMQKT
notes: as for B1
For B3, the Kd in assay [1] was found to be 100 µM.

B4: USP5-ZnF R222W/Y223F (domain or fragment, human, UniProt P45974 169-289, looked up)
chain: WDGEVRQVSKHAFSLKQLDNPARIPPCGWKCSKCDMRENLWLNLTDGSILCGRWFFDGSGGNNHAVEHYRETGYPLAVKLGTITPDGADVYSYDEDDMVLDPSLAEHLSHFGIDMLKMQKT
notes: as for B1
B4 gave a Kd in assay [1] of 16 µM.

B5: ZnF domain of USP5 (USP5-ZnF, residues 169-289), wild type (domain or fragment, human, UniProt P45974 169-289, looked up)
chain: WDGEVRQVSKHAFSLKQLDNPARIPPCGWKCSKCDMRENLWLNLTDGSILCGRRYFDGSGGNNHAVEHYRETGYPLAVKLGTITPDGADVYSYDEDDMVLDPSLAEHLSHFGIDMLKMQKT
notes: USP5 (isopeptidase T, isoT), human, zinc finger (ZnF) domain, residues 169-289, cloned into pET-M; also called WT; source: E. coli BL21, purified (Ni-NTA agarose, size-exclusion chromatography)
For the molecule B5, in assay [1], the Kd stood at 2.3 µM.

B6: USP5-ZnF Y261F (domain or fragment, human, UniProt P45974 169-289, looked up)
chain: WDGEVRQVSKHAFSLKQLDNPARIPPCGWKCSKCDMRENLWLNLTDGSILCGRRYFDGSGGNNHAVEHYRETGYPLAVKLGTITPDGADVYSFDEDDMVLDPSLAEHLSHFGIDMLKMQKT
notes: as for B1
B6 registered a Kd in assay [1] of 88 µM.

B7: USP13 (residues 21-863) (enzyme, human, UniProt Q92995 21-863, looked up)
chain: AGDIGELLVPHMPTIRVPRSGDRVYKNECAFSYDSPNSEGGLYVCMNTFLAFGREHVERHFRKTGQSVYMHLKRHVREKVRGASGGALPKRRNSKIFLDLDTDDDLNSDDYEYEDEAKLVIFPDHYEIALPNIEELPALVTIACDAVLSSKSPYRKQDPDTWENELPVSKYANNLTQLDNGVRIPPSGWKCARCDLRENLWLNLTDGSVLCGKWFFDSSGGNGHALEHYRDMGYPLAVKLGTITPDGADVYSFQEEEPVLDPHLAKHLAHFGIDMLHMHGTENGLQDNDIKLRVSEWEVIQESGTKLKPMYGPGYTGLKNLGNSCYLSSVMQAIFSIPEFQRAYVGNLPRIFDYSPLDPTQDFNTQMTKLGHGLLSGQYSKPPVKSELIEQVMKEEHKPQQNGISPRMFKAFVSKSHPEFSSNRQQDAQEFFLHLVNLVERNRIGSENPSDVFRFLVEERIQCCQTRKVRYTERVDYLMQLPVAMEAATNKDELIAYELTRREAEANRRPLPELVRAKIPFSACLQAFSEPENVDDFWSSALQAKSAGVKTSRFASFPEYLVVQIKKFTFGLDWVPKKFDVSIDMPDLLDINHLRARGLQPGEEELPDISPPIVIPDDSKDRLMNQLIDPSDIDESSVMQLAEMGFPLEACRKAVYFTGNMGAEVAFNWIIVHMEEPDFAEPLTMPGYGGAASAGASVFGASGLDNQPPEEIVAIITSMGFQRNQAIQALRATNNNLERALDWIFSHPEFEEDSDFVIEMENNANANIISEAKPEGPRVKDGSGTYELFAFISHMGTSTMSGHYICHIKKEGRWVIYNDHKVCASERPPKDLGYMYFYRRIPS
notes: Ubiquitin-specific protease 13 (USP13, isoT3), human, residues 21-863, cloned into pET-32M; The results call it full-length USP13; the methods give residues 21-863; also called full-length USP13; source: E. coli BL21, purified (Ni-NTA agarose, size-exclusion chromatography)
As for B7, the binding result in assay [2] is given as “binds”.

B8: tandem UBA domains of USP13 (USP13-UBA12, residues 652-776) (domain or fragment, human, UniProt Q92995 652-776, looked up)
chain: DIDESSVMQLAEMGFPLEACRKAVYFTGNMGAEVAFNWIIVHMEEPDFAEPLTMPGYGGAASAGASVFGASGLDNQPPEEIVAIITSMGFQRNQAIQALRATNNNLERALDWIFSHPEFEEDSDF
notes: USP13, human, tandem UBA domains (UBA1 and UBA2), residues 652-776, cloned into pET-32M; 15N-labelled in the NMR titrations; source: E. coli BL21, purified (Ni-NTA agarose, size-exclusion chromatography)
For B8, the binding result in assay [3], in assay [4] and in assay [2] was “binds” throughout.
